For 1 substance, Kd and Ka results are on record in patent US20220204602A1.

pKd: −log10 of the molar value.

Test [1] has as its target Cynomolgus C5 (Cynomolgus). Put plainly: BLI (Gator); pH 7.4.
Test [2] concerns the target Cynomolgus C5 (Cynomolgus). Put plainly: BLI (Gator); pH 5.8.
For test [3], the target named is human FcRn (human) (UniProt P55899). Put plainly: SPR (Biacore); pH 6.0.
Sequence of human FcRn (human) (P55899 24-297, chain 1 of 2): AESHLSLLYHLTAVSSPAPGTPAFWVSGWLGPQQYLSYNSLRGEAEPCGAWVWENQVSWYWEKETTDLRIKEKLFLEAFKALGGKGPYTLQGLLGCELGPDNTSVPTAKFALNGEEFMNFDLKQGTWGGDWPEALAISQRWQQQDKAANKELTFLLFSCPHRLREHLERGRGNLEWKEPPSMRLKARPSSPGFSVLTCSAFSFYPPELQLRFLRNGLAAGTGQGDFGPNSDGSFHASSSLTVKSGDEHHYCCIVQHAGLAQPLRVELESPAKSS
Sequence of human FcRn (human) (main, as listed by the source, chain 2 of 2): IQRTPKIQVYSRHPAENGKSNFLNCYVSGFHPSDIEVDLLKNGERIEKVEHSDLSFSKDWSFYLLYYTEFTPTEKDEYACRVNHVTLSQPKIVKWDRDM

Consider “anti-C5 mAb/FH SCR1-5 fusion protein FMEH-IgG4PLA-FH1-5 (from UniProt P08603 19-322)”, for which the pKd in test [1] was 8.22; in test [2], 7.39. The Ka in test [3] was determined as 1.13e+08 M⁻¹.
